Reference: article PMC6325244, “Regulation of the Peptidoglycan Polymerase Activity of PBP1b by Antagonist Actions of the Core Divisome Proteins FtsBLQ and FtsN” (mBio, 2019)

T1: PBP1b (E. coli, UniProt P02919 1-844, fluorescent ampicillin label added after elution)
T1 construct: PBP1b, E. coli, class A PBP, bifunctional glycosyltransferase/transpeptidase; Untagged as prey of HisFtsBLQ, HisFtsBL, HisFtsQ and HisFtsW; also called untagged PBP1b; source: E. coli C43 (DE3) or Lemo21 (DE3), coexpressed from Duet vectors, in detergent extract of membranes
T1 sequence (looked up): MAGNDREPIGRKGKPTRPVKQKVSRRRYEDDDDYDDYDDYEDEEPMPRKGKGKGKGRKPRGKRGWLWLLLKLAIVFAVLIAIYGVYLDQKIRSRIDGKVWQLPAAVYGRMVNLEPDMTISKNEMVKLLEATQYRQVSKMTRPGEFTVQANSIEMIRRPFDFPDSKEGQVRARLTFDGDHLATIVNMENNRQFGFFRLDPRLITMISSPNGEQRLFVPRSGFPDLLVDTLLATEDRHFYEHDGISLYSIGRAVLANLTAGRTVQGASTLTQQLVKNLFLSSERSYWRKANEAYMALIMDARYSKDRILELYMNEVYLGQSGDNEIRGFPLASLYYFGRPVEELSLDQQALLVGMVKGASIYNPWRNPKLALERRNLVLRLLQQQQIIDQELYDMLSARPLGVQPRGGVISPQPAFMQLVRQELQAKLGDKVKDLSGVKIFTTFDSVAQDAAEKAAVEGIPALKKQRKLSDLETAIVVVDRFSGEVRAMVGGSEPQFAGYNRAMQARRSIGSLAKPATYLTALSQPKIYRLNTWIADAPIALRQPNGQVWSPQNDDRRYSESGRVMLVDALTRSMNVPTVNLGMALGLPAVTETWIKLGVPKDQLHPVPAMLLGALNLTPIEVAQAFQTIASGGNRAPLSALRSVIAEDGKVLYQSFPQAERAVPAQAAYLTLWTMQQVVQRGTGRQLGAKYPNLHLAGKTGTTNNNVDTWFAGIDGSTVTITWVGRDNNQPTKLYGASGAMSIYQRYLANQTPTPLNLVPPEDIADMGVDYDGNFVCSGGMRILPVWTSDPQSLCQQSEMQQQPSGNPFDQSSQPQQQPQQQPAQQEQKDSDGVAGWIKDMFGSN

B1: FtsN (natural protein, E. coli, UniProt P29131 1-319, looked up)
chain: MAQRDYVRRSQPAPSRRKKSTSRKKQRNLPAVSPAMVAIAAAVLVTFIGGLYFITHHKKEESETLQSQKVTGNGLPPKPEERWRYIKELESRQPGVRAPTEPSAGGEVKTPEQLTPEQRQLLEQMQADMRQQPTQLVEVPWNEQTPEQRQQTLQRQRQAQQLAEQQRLAQQSRTTEQSWQQQTRTSQAAPVQAQPRQSKPASSQQPYQDLLQTPAHTTAQSKPQQAAPVARAADAPKPTAEKKDERRWMVQCGSFRGAEQAETVRAQLAFEGFDSKITTNNGWNRVVIGPVKGKENADSTLNRLKMAGHTNCIRLAAGG
notes: FtsN, E. coli, bitopic membrane protein; also called FtsN^WT; FtsNWT; source: E. coli C43 (DE3) or Lemo21 (DE3), coexpressed from Duet vectors, in detergent extract of membranes; also purified

Tests used:
PBP1b [1] = molecular target: T1, PBP1b
PBP1b [2] = molecular target: T1, PBP1b; assay: pull-down + SEC; PBP1b copurified with FtsN or FtsN W83L on a nickel column followed by gel filtration; SDS-PAGE, Coomassie, band amounts by Image Quant TL

Molecule | fold decrease in stimulation of the GTase activity of PBP1b (continuous fluorescence assay), initial velocity against wild-type FtsN (PBP1b [1]) [fold] | PBP1b/FtsN ratio in the copurified complex after gel filtration (parts PBP1b of 100 (PBP1b/FtsN 20/80)) (PBP1b [2]) | PBP1b/FtsN ratio in the copurified complex after gel filtration (PBP1b [2]; partners not purified)
FtsN^W83L (from UniProt P29131 1-319) (natural protein) | 2 | 20 | –
B1 | – | – | ~40 parts PBP1b of 100 (PBP1b/FtsN 40/60)
